Data reported in patent publication US20040233833A1, “Methods for identifying compounds with thrapeutic potential for treatment of central Neurodegenerative diseases resulting from abnormal protein or peptide accumulation” (priority 2001, published 2004).

How the values were obtained:
[1] = target: proteasome (chymotrypsin-like activity) (Homo sapiens, UniProt P28072+P28074+Q99436); test: Activity screen of E. coli lysates expressing mutagenized REGγ for stimulation of LLVY-MCA cleavage; assay type: biochemical; conditions: 170 ng proteasome, 100 μM LLVY-MCA, 10-minute incubation; 1400 colonies
Protocol: Error-prone PCR was used to introduce random mutation into the REGγ DNA. See Zhang et al., (1998)Idnetification of an Activation Region in the Proteasome Activator REGα. Proc. Natl. Acad. Sci. 95:2807-2811. The PCR products were inserted into pET26(b) through NdeI/BamHI sites. The resulting plasmid library was transformed into BL21(DE3) cells. About 60% of the isolated colonies contained a single-site mutation.
Transformants were picked and grown at 37° C. in LB containing 25 μg/ml kanamycin. Protein expression was induced with 0.8 mM IPTG for 2 hours at 30° C. Cells were collected by centrifugation and lysed with 10 mM Tris-HCL, pH 7.5, 0.5% Triton X-100, and 0.3 mg/ml polymixin B sulfate. Aliquots were incubated with 170 ng proteasome and 100 μM LLVY (SEQ ID NO:1)-MCA. After a 10-minute incubation, reactions were terminated with 200 μl of ethanol and fluorescence was measured. See Li et al (2000), The Proteasome Activator 11S REG or PA28: Chimeras Implicate Carboxyl-Terminal Sequences in Oligomerization and Proteasome Binding But Not in the Activation of Specific Proteasome Catalytic Subunits, J. Mol. Biol. 299:641-54.

[2] = target: proteasomes (Homo sapiens, UniProt P28072+P28074+Q99436); test: Proteasomal degradation of fluorescein-labeled polyQ peptides (molecular exclusion chromatography); assay type: biochemical; conditions: proteasome + activator, 5 hr incubation
Protocol: The following peptides were synthesized using routine peptide synthesis:
Each peptide was incubated for 5 hr with proteasomes alone, proteasomes+REGγ, proteasome+REGγ(K188E) or proteasomes+REGα/β. Degradation was assayed by molecular exclusion chromatography using fluorescein as a signal (see FIG. 2). The degradation products were identified by HPLC-MS (FIG. 3). […] By contrast, in the presence of REGγ(K188E) the various polyQ peptides were degraded 5 to 10-fold faster.

[3] = target: T1, Human red blood cell proteasomes (Homo sapiens, UniProt P28072+P28074+Q99436); test: Activation of fluorogenic peptide hydrolysis by the proteasome in the presence of REG variants; assay type: biochemical; conditions: for Stimulation of cleavage (x-fold) LLE: substrate LLE-βNA (PGPH site); for Stimulation of cleavage (x-fold) LLVY: substrate LLVY-MCA (chymotrypsin-like site); for Stimulation of cleavage (x-fold) LRR: substrate LRR-MCA (trypsin-like site); for Stimulation of hydrolysis of LLVY-MCA and LLE-βNA: summary of Table 1
T1 construct: Human red blood cell proteasomes; from tissue; host or cells: human red blood cells
Protocol: Human red blood cell proteasomes (170 ng) were mixed with increasing amounts of purified REG variants. The reactions were started by adding 50 μl of 200 μMscu-LLVY-MCA, Boc-LRR-MCA, or Boc-LLE-βNA in 10 mM Tris, pH 7.5. After a 10 min incubation, the reaction was quenched with 200μl of cold 100% ethanol, and the released MCA or βNA ws measured fluometrically. Each data point represents the mean of three measurements from a single experiment. […] REGα (▪), REGγ(□), REGγ(K188E) or REGγ(K188D) (●), REGγ(K188H) (∘), REGγ(K188Q) or REGγ(K188N) (Δ), REGγ(K188A) (♦). The data for REGγ(K188E) and REGγ(K188D) and for REGγ(K188Q) and REGγ(K188N) were combined since their activities were indistinguishable.
Because each positive variant identified in the previous example included a mutation at Lys188, site-directed mutagenesis was used to generate a series of amino acid substitutions at this residue. Twelve mutants were constructed in which Lys188 of REGγ was changed to Ala, Arg, Asn, Asp, Cys, Gln, Glu, His, Ile, Phe, Pro, or Ser. Wild-type REGγ and the Lys 188 variants were expressed in E. coli, purified, and the activation specificity of each protein was measured using the diagnostic peptides LLVY (SEQ ID NO:1)-MCA, LRR-MCA, and LLE-βNA. Except for the K188R variant, all Lys 188 mutants stimulated the hydrolysis of LRR-MCA by the proteasome to the same extent or slightly better than wild-type REGγ. Substitution of negatively-charged Glu or Asp for the positively-charged Lys188 produced mutants with activation properties almost identical to REGα.
To determine the degree to which the activation specificity of REGγ(K188E/D) variants matches that of REGα, proteasomal cleavage of a series of fluorogenic peptides was measured in the presence of each activator.

[4] = target: T2, proteasome (Homo sapiens, UniProt P28072+P28074+Q99436); test: Proteasomal hydrolysis of natural peptides P21 and BBC1 (HPLC); assay type: biochemical; conditions: 21-residue peptide P21; result in words
Protocol: Proteasomal hydrolysis of a 21 -residue peptide (P21) and a 49-residue peptide (BBC1) were prepared as described by Zhang et al. (1998), Proteasome Activation by REG Molecules Lacking Homolog-specific Inserts, J. Biol. Chem. 273:9501-09. Digestion products were applied to a C18 HPLC column and separated with a gradient of 0-45% acetonitrile containing 0.1% trifluoroacetic acid. To identify the products derived from P21, fractions were collected manually, concentrated, and subjected to mass spectrometry.

[5] = Heptamer stability on rechromatography (Superdex 200 size exclusion column); assay type: physicochemical; conditions: for Percent heptamer: after second gel filtration; for Percentage that remained heptamers on rechromatography: Superdex 200 second gel filtration
From the text: To examine the effect of Lys188 substitution on REGγ heptamer stability, the wildtype and Lys 188 variant heptamers were rechromatographed on the Superdex 200 (26/60) size exclusion column used for purification. […] Replacement of Lys 188 by Pro or Phe severely affected the stability of REGγ heptamer.

[6] = target: T2, proteasome; test: REGα(N146Y)/REGβ(N135Y) competition assay for relative proteasome affinity; assay type: binding; conditions: in terms of REGα(N146Y)/REGβ(N135Y) competition; wild-type REGγ 100
From the text: As a measure of the relative affinities of REGγ and the REGγLys188 mutants for the proteasome, a competition assay was used. See Li et al. (2000), The Proteasome Activator 11S REG or PA28: Chimeras Implicate Carboxyl-Terminal Sequences in Oligomerization and Proteasome Binding But Not in the Activation of Specific Proteasome Catalytic Subunits. J. Mol. Biol. 299:641-54. All REGγLys188 mutants were relatively resistant to REGα(N146Y)/REGβ(N135Y) competition with apparent proteasome affinities varying from 40% to 90% that of wild-type REGγ.

[7] = target: T1, Human red blood cell proteasomes; test: Activation of fluorogenic peptide hydrolysis by the proteasome in the presence of REG variants; assay type: biochemical

Row | Stimulation of cleavage (x-fold) LLE [3] [x-fold] | Stimulation of cleavage (x-fold) LLVY [3] [x-fold] | Stimulation of cleavage (x-fold) LRR [3] [x-fold] | Relative affinity for proteasome [6] | Substance | Percent heptamer [5] | Percentage that remained heptamers on rechromatography [5] | other results
1 |  |  |  |  | (F102I, K188N): REGγ double mutant F102I, K188N isolated from the error-prone PCR library |  |  | Colony screen for stimulation of LLVY-MCA cleavage [1]: positive
2 |  |  |  |  | (L38V, K188N): REGγ double mutant L38V, K188N isolated from the error-prone PCR library |  |  | Colony screen for stimulation of LLVY-MCA cleavage [1]: positive
3 |  |  |  |  | (L71P, K188E): REGγ double mutant L71P, K188E isolated from the error-prone PCR library |  |  | Colony screen for stimulation of LLVY-MCA cleavage [1]: positive
4 |  |  |  |  | REGα/β: REGα/β hetero-heptamer proteasome activator |  |  | % Degraded, substrate F1-EPQPQ [2]: 55%; % Degraded, substrate F1-KSQPQ [2]: 85%; % Degraded, substrate F1-QHQ [2]: 80%; % Degraded, substrate F1-QPQ [2]: 85%; % Degraded, substrate F1-QQQ [2]: 85%
5 | 9 | 16 | 16 | 0 | REGα: 11S REG proteasome activator subunit closely related to REGβ and REGγ | ˜95% |  | Hydrolysis of P21 by the proteasome [4]: markedly increased; Stimulation of cleavage (x-fold) AAF-MCA ([7]; substrate AAF-MCA): 6 x-fold; Stimulation of cleavage (x-fold) DEVD-MCA ([7]; substrate DEVD(SEQ ID NO: 8)-MCA): 10 x-fold; Stimulation of cleavage (x-fold) FSR-MCA ([7]; substrate FSR-MCA): 10 x-fold; Stimulation of cleavage (x-fold) IEGR-MCA ([7]; substrate IEGR(SEQ ID NO: 5)-MCA): 3 x-fold; Stimulation of cleavage (x-fold) IETD-MCA ([7]; substrate IETD(SEQ ID NO: 6)-MCA): 30 x-fold; Stimulation of cleavage (x-fold) LGHD-MCA ([7]; substrate LGHD(SEQ ID NO: 7)-MCA): 11 x-fold; Stimulation of cleavage (x-fold) LY-MCA ([7]; substrate LY-MCA): 5 x-fold; Stimulation of cleavage (x-fold) VLK-MCA ([7]; substrate VLK-MCA): 7 x-fold; Stimulation of cleavage (x-fold) YVAD-MCA ([7]; substrate YVAD(SEQ ID NO: 9)-MCA): 9 x-fold
6 | 6 | 6 | 13 | 60 | γK188A: mutant REGγ in which Lys188 was changed to Ala | 60% |  | Stimulation of hydrolysis of LLVY-MCA and LLE-βNA [3]: 6 fold
7 | 4 | 4 | 13 | 40 | γK188F: mutant REGγ in which Lys188 was changed to Phe | Dimer | remained monomers or dimers | 
8 | 4 | 5 | 14 | 50 | γK188H: mutant REGγ in which Lys188 was changed to His | >95% | remained fully heptameric | 
9 | 3 | 2 | 12 | 60 | γK188I: mutant REGγ in which Lys188 was changed to Ile | >95% | remained fully heptameric | Stimulation of hydrolysis of LLVY-MCA and LLE-βNA [3]: 2 fold
10 | 5 | 5 | 14 | 75 | γK188N: mutant REGγ in which Lys188 was changed to Asn | 80% |  | Colony screen for stimulation of LLVY-MCA cleavage [1]: positive
11 | 1 | 1 | 12 | 40 | γK188P: mutant REGγ in which Lys188 was changed to Pro | 50% |  | Heptamers dissociated during the second gel filtration ([5]; Superdex 200): About 50%
12 | 5 | 5 | 14 | 75 | γK188Q: mutant REGγ in which Lys188 was changed to Gln | 80% |  | 
13 | 0.7 | 0.7 | 10 | 75 | γK188R: mutant REGγ in which Lys188 was changed to Arg | >95% | remained fully heptameric | 
14 | 3 | 3 | 14 | 50 | γKI88S: mutant REGγ in which Lys188 was changed to Ser | >95% | remained fully heptameric | 
15 | 5 | 6 | 13 | 60 | γKl88C: mutant REGγ in which Lys188 was changed to Cys | 70% |  | Stimulation of hydrolysis of LLVY-MCA and LLE-βNA [3]: 6 fold
